Experimental findings from publication PMC10469072 are described below.

This data set concerns the target CD22 (recombinant, histidine-tagged; Thermo Fisher A42609) (human, UniProt P20273 20-687). In words: His-bead pull-down with qRT-PCR.

CD22 (recombinant, histidine-tagged; Thermo Fisher A42609), sequence (P20273 20-687, one chain of several): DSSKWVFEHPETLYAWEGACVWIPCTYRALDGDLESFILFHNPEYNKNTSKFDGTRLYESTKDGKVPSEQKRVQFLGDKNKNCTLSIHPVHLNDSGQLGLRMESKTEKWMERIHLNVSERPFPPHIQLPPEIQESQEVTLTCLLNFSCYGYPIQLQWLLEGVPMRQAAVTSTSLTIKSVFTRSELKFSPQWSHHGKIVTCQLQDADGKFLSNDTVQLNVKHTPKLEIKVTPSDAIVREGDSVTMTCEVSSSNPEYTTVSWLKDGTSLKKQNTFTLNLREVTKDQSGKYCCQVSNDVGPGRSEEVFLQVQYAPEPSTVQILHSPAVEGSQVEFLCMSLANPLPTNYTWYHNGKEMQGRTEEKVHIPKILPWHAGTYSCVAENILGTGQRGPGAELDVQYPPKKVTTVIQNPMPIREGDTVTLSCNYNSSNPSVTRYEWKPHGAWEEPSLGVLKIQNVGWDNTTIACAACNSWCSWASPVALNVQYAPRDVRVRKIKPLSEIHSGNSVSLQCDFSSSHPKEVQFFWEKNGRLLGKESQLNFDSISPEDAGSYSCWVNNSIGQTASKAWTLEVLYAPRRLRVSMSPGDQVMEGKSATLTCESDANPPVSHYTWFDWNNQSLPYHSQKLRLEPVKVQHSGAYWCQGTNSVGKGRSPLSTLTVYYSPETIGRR

B1: B-ALL1 (structured_RNA)
RNA: GGGAGGACGAUGCGGGCCAUUCGUCUUUUCGUCCCCAGACGACUCGCCCGA
modifications: 2'-fluoro pyrimidines (2'F-C, 2'F-U), unmodified purines
On to B1, for which the binding result is listed as “binds”.
